Test results published in patent publication US20220098265A1 (MEDIMMUNE LIMITED, priority 2012, published 2022).
Numbered stars: 1 amine (or outer) side, 2 acyl side, 3 side chain; on linkers, the order of the positions; unused ones are H or OH. Side chains are listed from the residue outwards. Ends that are not written are not given here. * marks the point of attachment. γGlu = O=C(O)[C@H](CCC(=O)[*:2])N[*:1]; Palmitoyl = CCCCCCCCCCCCCCCC(=O)*

T1: human glucose-dependent insulinotropic peptide (gastric inhibitory polypeptide) receptor (human, UniProt P48546 22-466)
T1 sequence (looked up): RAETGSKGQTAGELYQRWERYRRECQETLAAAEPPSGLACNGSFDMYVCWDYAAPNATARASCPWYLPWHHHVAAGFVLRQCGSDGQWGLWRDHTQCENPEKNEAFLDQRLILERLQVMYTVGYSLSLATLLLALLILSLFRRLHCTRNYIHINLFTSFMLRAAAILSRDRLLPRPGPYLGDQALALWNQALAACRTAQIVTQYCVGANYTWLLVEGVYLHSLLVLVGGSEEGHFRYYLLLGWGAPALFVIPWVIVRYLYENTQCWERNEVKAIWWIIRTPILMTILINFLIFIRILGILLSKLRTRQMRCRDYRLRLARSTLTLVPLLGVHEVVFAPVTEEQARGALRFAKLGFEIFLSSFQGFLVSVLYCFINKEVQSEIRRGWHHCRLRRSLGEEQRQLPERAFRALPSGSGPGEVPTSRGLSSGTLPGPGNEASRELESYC


What was measured:
Assay in all cases: cell-based or functional assay
human GLP-1 receptor = human GLP-1 receptor (human, UniProt P43220 24-463)
human glucagon receptor = human glucagon receptor (human, UniProt P47871 26-477)
[1] = target: T1, human glucose-dependent insulinotropic …

Chain of human glucagon receptor (P47871 26-477): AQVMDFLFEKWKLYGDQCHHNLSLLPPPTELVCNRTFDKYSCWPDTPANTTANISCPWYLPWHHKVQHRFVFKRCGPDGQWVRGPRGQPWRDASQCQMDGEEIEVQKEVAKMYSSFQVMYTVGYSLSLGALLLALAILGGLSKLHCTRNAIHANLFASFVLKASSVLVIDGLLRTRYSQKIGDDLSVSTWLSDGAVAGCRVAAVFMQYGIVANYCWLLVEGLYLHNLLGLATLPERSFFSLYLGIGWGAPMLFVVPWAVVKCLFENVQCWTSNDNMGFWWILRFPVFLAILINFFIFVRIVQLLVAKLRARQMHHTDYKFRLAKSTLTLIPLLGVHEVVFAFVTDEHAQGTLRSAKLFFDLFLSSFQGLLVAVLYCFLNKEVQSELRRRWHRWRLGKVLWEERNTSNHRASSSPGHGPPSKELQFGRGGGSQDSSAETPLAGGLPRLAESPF

| Binder | cAMP EC50 (assay 1) (human GLP-1 receptor) | cAMP EC50 (assay 1) (human glucagon receptor) | cAMP EC50 (assay 1) [1] |
| --- | --- | --- | --- |
| HSQGTFTSDYSKYLDSRRAQDFVQWLVAGGSSGGSSK(Palmitoyl)-NH2 (N-terminus assumed; SMILES CCCCCCCCCCCCCCCC(=O)NCCCC[C@H](NC(=O)[C@H](CO)NC(=O)[C@H](CO)NC(=O)CNC(=O)CNC(=O)[C@H](CO)NC(=O)[C@H](CO)NC(=O)CNC(=O)CNC(=O)[C@H](C)NC(=O)[C@@H](NC(=O)[C@H](CC(C)C)NC(=O)[C@H](Cc1c[nH]c2ccccc12)NC(=O)[C@H](CCC(N)=O)NC(=O)[C@@H](NC(=O)[C@H](Cc1ccccc1)NC(=O)[C@H](CC(=O)O)NC(=O)[C@H](CCC(N)=O)NC(=O)[C@H](C)NC(=O)[C@H](CCCNC(=N)N)NC(=O)[C@H](CCCNC(=N)N)NC(=O)[C@H](CO)NC(=O)[C@H](CC(=O)O)NC(=O)[C@H](CC(C)C)NC(=O)[C@H](Cc1ccc(O)cc1)NC(=O)[C@H](CCCCN)NC(=O)[C@H](CO)NC(=O)[C@H](Cc1ccc(O)cc1)NC(=O)[C@H](CC(=O)O)NC(=O)[C@H](CO)NC(=O)[C@@H](NC(=O)[C@H](Cc1ccccc1)NC(=O)[C@@H](NC(=O)CNC(=O)[C@H](CCC(N)=O)NC(=O)[C@H](CO)NC(=O)[C@@H](N)Cc1c[nH]cn1)[C@@H](C)O)[C@@H](C)O)C(C)C)C(C)C)C(N)=O) [g318] | 1.14 nM | 9.04 nM |  |
| HSQGTFTSDYSKYLDSRRAQDFVQWLVAGGSGSGSG-NH2 [g402] | 0.0857 nM | 0.0596 nM |  |
| HSQGTFTSDYSKYLDSRRAQDFVQWLVAGGGGGGK-NH2 [g325] | 0.0261 nM | 0.0103 nM |  |
| HSQGTFTSDYSKYLDSRRAQDFVQWLEAGG-NH2 [g840] | 0.145 nM | 0.0053 nM | 102 nM |
| HSQGTFTSDYSKYLDSRRAQDFVQWLVAGGSSGGSSK-NH2 [g317] | 2.63 nM |  |  |
| HSQGTFTSDYSK([γGlu-Palmitoyl])YLDSRRAQDFVQWLVAGG-NH2 (N-terminus assumed; SMILES CCCCCCCCCCCCCCCC(=O)N[C@@H](CCC(=O)NCCCC[C@H](NC(=O)[C@H](CO)NC(=O)[C@H](Cc1ccc(O)cc1)NC(=O)[C@H](CC(=O)O)NC(=O)[C@H](CO)NC(=O)[C@@H](NC(=O)[C@H](Cc1ccccc1)NC(=O)[C@@H](NC(=O)CNC(=O)[C@H](CCC(N)=O)NC(=O)[C@H](CO)NC(=O)[C@@H](N)Cc1c[nH]cn1)[C@@H](C)O)[C@@H](C)O)C(=O)N[C@@H](Cc1ccc(O)cc1)C(=O)N[C@@H](CC(C)C)C(=O)N[C@@H](CC(=O)O)C(=O)N[C@@H](CO)C(=O)N[C@@H](CCCNC(=N)N)C(=O)N[C@@H](CCCNC(=N)N)C(=O)N[C@@H](C)C(=O)N[C@@H](CCC(N)=O)C(=O)N[C@@H](CC(=O)O)C(=O)N[C@@H](Cc1ccccc1)C(=O)N[C@H](C(=O)N[C@@H](CCC(N)=O)C(=O)N[C@@H](Cc1c[nH]c2ccccc12)C(=O)N[C@@H](CC(C)C)C(=O)N[C@H](C(=O)N[C@@H](C)C(=O)NCC(=O)NCC(N)=O)C(C)C)C(C)C)C(=O)O) [g728] |  | 2.44 nM | 395 nM |
| HSQGTFTSDYSK([γGlu-Palmitoyl])YLDSRRAQDFVQWLERGG-NH2 (N-terminus assumed; SMILES CCCCCCCCCCCCCCCC(=O)N[C@@H](CCC(=O)NCCCC[C@H](NC(=O)[C@H](CO)NC(=O)[C@H](Cc1ccc(O)cc1)NC(=O)[C@H](CC(=O)O)NC(=O)[C@H](CO)NC(=O)[C@@H](NC(=O)[C@H](Cc1ccccc1)NC(=O)[C@@H](NC(=O)CNC(=O)[C@H](CCC(N)=O)NC(=O)[C@H](CO)NC(=O)[C@@H](N)Cc1c[nH]cn1)[C@@H](C)O)[C@@H](C)O)C(=O)N[C@@H](Cc1ccc(O)cc1)C(=O)N[C@@H](CC(C)C)C(=O)N[C@@H](CC(=O)O)C(=O)N[C@@H](CO)C(=O)N[C@@H](CCCNC(=N)N)C(=O)N[C@@H](CCCNC(=N)N)C(=O)N[C@@H](C)C(=O)N[C@@H](CCC(N)=O)C(=O)N[C@@H](CC(=O)O)C(=O)N[C@@H](Cc1ccccc1)C(=O)N[C@H](C(=O)N[C@@H](CCC(N)=O)C(=O)N[C@@H](Cc1c[nH]c2ccccc12)C(=O)N[C@@H](CC(C)C)C(=O)N[C@@H](CCC(=O)O)C(=O)N[C@@H](CCCNC(=N)N)C(=O)NCC(=O)NCC(N)=O)C(C)C)C(=O)O) [g701] | 7.4 nM | 3.83 nM |  |
| HSQGTFTSDYSKYLDSRRAQDFVQWLVAGGPSSGAPPPSK-NH2 [g319] | 0.0361 nM | 0.0104 nM |  |
| HSQGTFTSDYSK([γGlu-Palmitoyl])YLDSRRAQDFVQWLVAGG-NH2 (N-terminus assumed; SMILES CCCCCCCCCCCCCCCC(=O)N[C@@H](CCC(=O)NCCCC[C@H](NC(=O)[C@H](CO)NC(=O)[C@H](Cc1ccc(O)cc1)NC(=O)[C@H](CC(=O)O)NC(=O)[C@H](CO)NC(=O)[C@@H](NC(=O)[C@H](Cc1ccccc1)NC(=O)[C@@H](NC(=O)CNC(=O)[C@H](CCC(N)=O)NC(=O)[C@H](CO)NC(=O)[C@@H](N)Cc1c[nH]cn1)[C@@H](C)O)[C@@H](C)O)C(=O)N[C@@H](Cc1ccc(O)cc1)C(=O)N[C@@H](CC(C)C)C(=O)N[C@@H](CC(=O)O)C(=O)N[C@@H](CO)C(=O)N[C@@H](CCCNC(=N)N)C(=O)N[C@@H](CCCNC(=N)N)C(=O)N[C@@H](C)C(=O)N[C@@H](CCC(N)=O)C(=O)N[C@@H](CC(=O)O)C(=O)N[C@@H](Cc1ccccc1)C(=O)N[C@H](C(=O)N[C@@H](CCC(N)=O)C(=O)N[C@@H](Cc1c[nH]c2ccccc12)C(=O)N[C@@H](CC(C)C)C(=O)N[C@H](C(=O)N[C@@H](C)C(=O)NCC(=O)NCC(N)=O)C(C)C)C(C)C)C(=O)O) [g702] |  | 1.49 nM |  |
